Experimental findings from paper PMC9965349 (Viruses, 2023) are described below.

Series [1] deals with PEDV S1 protein (Porcine epidemic diarrhea virus, UniProt Q91AV1). Kind of series: SPR kinetic measurement (Biacore X100, CM5 chip). In kind it is binding.
Series [2] has as its system Vero cells. Kind of series: Cytotoxicity assay (CCK-8). The series is classed as cell-based, African green monkey.
Series [3] has as its target T1, porcine epidemic diarrhea virus S protein (PEDV-S1) (porcine epidemic diarrhea virus).
T1 chain: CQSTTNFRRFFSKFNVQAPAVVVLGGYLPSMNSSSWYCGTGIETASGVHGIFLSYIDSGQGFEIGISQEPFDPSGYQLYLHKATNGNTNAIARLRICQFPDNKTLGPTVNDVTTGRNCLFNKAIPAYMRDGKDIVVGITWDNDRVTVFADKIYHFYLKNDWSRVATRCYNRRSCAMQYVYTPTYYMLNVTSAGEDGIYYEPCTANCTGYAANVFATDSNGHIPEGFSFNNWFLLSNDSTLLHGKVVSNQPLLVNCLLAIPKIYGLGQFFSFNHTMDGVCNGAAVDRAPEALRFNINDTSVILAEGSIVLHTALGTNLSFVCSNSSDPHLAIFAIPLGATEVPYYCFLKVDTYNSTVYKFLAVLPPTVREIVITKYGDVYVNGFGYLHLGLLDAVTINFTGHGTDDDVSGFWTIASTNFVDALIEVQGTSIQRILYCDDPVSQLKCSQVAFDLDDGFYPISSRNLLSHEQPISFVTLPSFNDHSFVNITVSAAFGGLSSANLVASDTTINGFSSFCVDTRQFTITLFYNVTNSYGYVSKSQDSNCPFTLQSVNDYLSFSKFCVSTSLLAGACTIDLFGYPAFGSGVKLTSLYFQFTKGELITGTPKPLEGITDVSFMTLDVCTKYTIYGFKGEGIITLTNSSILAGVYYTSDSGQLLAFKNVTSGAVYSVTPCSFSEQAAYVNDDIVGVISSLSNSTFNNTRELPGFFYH
Kind of series: ELISA. The conditions noted are these: both partners purified. Background: An ELISA detects its analyte on a solid surface through an enzyme-linked reagent.

Series [4] addresses T1, porcine epidemic diarrhea virus S …. Kind of series: SPR. The conditions noted are these: both partners purified.
[5] abbreviates: SPR, 1:1 binding fit, peptide 0.78125-25 μM, HBS-EP pH 7.4, 30 μL/min, 120 s association, 120 s dissociation.

For orientation: koff means a measure of how fast the partners let go of each other. A high value points to a short-lived complex. The term kon denotes the rate constant with which the complex forms. Read a high kon as faster complex formation.

Like-named read-outs stand apart in the source and are kept apart here. Residues, ends and D or L forms follow the SMILES beside them. Where only a bound is given, the exact number is not on record here.

`C[C@H](NC(=O)[C@H](CCC(=O)O)NC(=O)[C@H](CCCCN)NC(=O)[C@H](Cc1c[nH]c2ccccc12)NC(=O)[C@@H](N)Cc1ccccc1)C(=O)N[C@@H](CCCCN)C(=O)O` [compound 110616] (H-FWKEAK-OH): the Kd in series [1] worked out at 772 nM.

Turning to `N=C(N)NCCC[C@H](NC(=O)[C@H](CCCCN)NC(=O)[C@H](CO)NC(=O)[C@H](CCCCN)NC(=O)[C@H](Cc1c[nH]c2ccccc12)NC(=O)[C@@H](N)Cc1ccccc1)C(=O)O` [compound 110766], in series [1], the Kd is 216 nM. Further, the “Cell viability (CCK-8)” value in series [2] (0.78125-400 µM, 24 h at 37 °C, normalized to control without peptide) was “over 90%”. Also, in series [2] (CCK-8), the “Cytotoxicity (in words)” value is on record as “not toxic to vero cells”.

`N=C(N)NCCC[C@H](NC(=O)[C@H](CC(N)=O)NC(=O)[C@H](Cc1ccccc1)NC(=O)[C@H](Cc1c[nH]cn1)NC(=O)[C@@H](N)Cc1c[nH]c2ccccc12)C(=O)N1CCC[C@H]1C(=O)O` [compound 115042] (H-WHFNRP-OH) yielded a Kd in series [1] of 6520 nM.

For the molecule FWKQNKFLFWKQNKCL [compound 110490], in series [1] (setting [5]), the Ka came out at 5743 M⁻¹ s⁻¹ and the Kd stood at 0.03522 s⁻¹.

On to WHFNRP [peptide 115042], for which the P/N value in series [3] was greater than 67.9. For the same molecule, in series [4], the Kd turned out to be 6520 nM, the off-rate constant (koff) was determined as 0.0225 s⁻¹ and the kon came out at 3450 M⁻¹ s⁻¹.

In series [3], FWKQNKFLFWKQNKCL [peptide 110490] displayed a P/N value greater than 67.9. In series [4], this molecule came in with a Kd of 1500 nM, a koff of 0.0352 s⁻¹ and a kon of 5740 M⁻¹ s⁻¹.

On to FWKEAK [peptide 110616], for which the P/N value in series [3] was greater than 67.9. In series [4], this molecule showed a Kd of 772 nM, an off-rate constant (koff) of 0.0236 s⁻¹ and a kon of 30500 M⁻¹ s⁻¹.

For the molecule FWKSKR [peptide 110766], the Kd in series [4] is 216 nM.
